Data published in patent US20260209349A1 (IMBIORAY HANGZHOU BIOMEDICINE, published 2026).

Columns and labels:
[1] = target: Human CD33 (human, UniProt P20138 18-259); assay: BLI, affinity to target
[2] = target: T1, Human CLL1 (human, UniProt Q5QGZ9 65-265, limits assumed); assay: BLI, affinity to target
T1 construct: also called C-type lectin-like molecule 1
T1 sequence (looked up): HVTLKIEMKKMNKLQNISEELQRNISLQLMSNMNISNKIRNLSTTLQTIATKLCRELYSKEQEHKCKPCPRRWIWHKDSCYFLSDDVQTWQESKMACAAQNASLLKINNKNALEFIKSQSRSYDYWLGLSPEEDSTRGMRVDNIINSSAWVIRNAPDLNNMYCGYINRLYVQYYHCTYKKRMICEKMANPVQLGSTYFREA

Chain of Human CD33 (P20138 18-259 limits assumed): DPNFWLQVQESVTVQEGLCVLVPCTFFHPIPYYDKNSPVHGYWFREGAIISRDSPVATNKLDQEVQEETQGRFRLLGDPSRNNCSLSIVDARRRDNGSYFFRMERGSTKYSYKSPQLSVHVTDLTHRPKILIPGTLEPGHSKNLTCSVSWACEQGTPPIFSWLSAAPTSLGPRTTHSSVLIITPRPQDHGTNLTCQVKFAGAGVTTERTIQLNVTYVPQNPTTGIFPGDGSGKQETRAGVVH

B1: Anti-CD33-CLL1 bispecific antibody (bispecific antibody, human IgG1, kappa)
heavy 1: not shown
light 1: not shown
heavy 2: not shown
light 2: DIQMTQSPSSLSASVGDRVTITCRASESVDNYGISFMNWFQQKPGKAPKLLIYAASNQGSGVPSRFSGSGSGTDFTLTISSLQPDDFATYYCQQSKEVPWTFGQGTKVEIKRTVAAPSVFIFPPSDEQLKSGTASVVCLLNNFYPREAKVQWKVDNALQSGNSQESVTEQDSKDSTYSLSSTLTLSKADYEKHKVYACEVTHQGLSSPVTKSFNRGEC
notes: Copies '1' follow from this arm exchange; also called anti-CD33/CLL1 antibody
- Kd [1]: 5.5 nM
- Kd [2]: 26 nM
